Data on 15 molecules can be found in patent US20250074994A1 (Molecular Partners, published 2025).

The target of assay [1] is T1, human CD70 expressed on Molm-13 tumor cells (human, UniProt P32970 1-193).
T1 construct: whole, on cells; also called CD70 expressed on the surface of cells; CD70-expressing tumor cells (Molm-13 N1)
T1 sequence (looked up): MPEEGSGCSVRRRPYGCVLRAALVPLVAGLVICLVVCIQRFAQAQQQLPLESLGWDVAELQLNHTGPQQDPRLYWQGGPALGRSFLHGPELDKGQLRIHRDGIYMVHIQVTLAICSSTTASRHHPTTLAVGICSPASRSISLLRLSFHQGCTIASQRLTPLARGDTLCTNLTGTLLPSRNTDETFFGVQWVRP
Briefly: flow cytometry (MFI) on CD70-expressing Molm-13 N1 tumor cells. The protocol:
Binding of binding proteins of the invention to CD70 expressed on the surface of cells was analyzed by fluorescence activated cell sorting (FACS) flow cytometry. For this purpose, CD70-expressing tumor cells (Molm-13 N1) were seeded at 100,000 cells per well in a 96 well plate. DARPin® protein #2, DARPin® protein #9, DARPin® protein #24 and DARPin® protein #25 were titrated down in 1:5 dilution ratio starting at 2000 nM. Tumor cells were resuspended with diluted DARPin proteins and incubated for 60 minutes at 4° C., The assay was performed in PBS including 2% fetal bovine serum without human serum albumin (HSA). After washing twice with Phosphate Buffer saline (PBS), DARPin® protein specific tumor cell binding was detected by adding unlabeled primary anti-rabbit DARPin® antibody (anti-rabbit 1-1-1 antibody, CePower) at 2 μg/ml. An incubation step of at least 30 minutes at 4° C. followed. Afterwards, cells were washed with PBS and a secondary goat anti-rabbit antibody labelled with Alexa Fluor 488 antibody (ThermoFisher) at 2 μg/ml was added. The same incubation conditions applied. Finally, the cells were washed twice and resuspended In Cytofix fixation buffer (BD Biosciences) for 15 min at room temperature (RT). Median fluorescence intensities (MFI) of Alexa Fluor 488 DARPin® protein labelled tumor cells were measured by Attune NXT (ThermoFisher) using FlowJo software for analyses and GraphPad Prism 8 for data plotting.
A general note: In flow cytometry, cells or beads pass a laser one at a time.

The target in assay [2] is T2, biotinylated recombinant human CD70 (extracellular domain, Fc tag) (human, UniProt P32970 52-193, chemically biotinylated using 5-fold excess of Biotin).
T2 construct: Bought from ACROBiosystems; also called bio.hCD70; Bio.CD70; not shown: C-terminal Fc Tag of the bought protein (ACROBiosystems)
T2 sequence: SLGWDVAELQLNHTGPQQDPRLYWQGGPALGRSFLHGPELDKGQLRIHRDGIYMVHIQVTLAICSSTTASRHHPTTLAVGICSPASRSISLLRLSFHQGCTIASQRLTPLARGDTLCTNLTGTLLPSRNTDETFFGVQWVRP
In words: SPR (ProteOn XPR36), bio.CD70 immobilized on NLC chip, DARPin as analyte. As for the experimental part: The binding affinities of purified ankyrin repeat proteins on recombinant human CD70 target were analyzed using a ProteOn XPR36 instrument (BioRad) and the measurement was performed according standard procedures known to the person skilled in the art.
Bio.CD70 was immobilized on a NLC chip and the ankyrin repeat proteins were applied as titration with a starting concentration of 100 nM and then titrated down to 1.2 nM. The signals were double referenced against the PBST-treated control lane of L1 and A6. Analyte injection was performed for 120 s followed by a dissociation for 1500 s.

Assay [3] concerns the target T2, biotinylated recombinant human CD70 …. In words: SPR, bio.hCD70 on neutravidin-coated GLC chip, DARPin as analyte, 1:1 Langmuir fit. The protocol: Moreover, the binding affinities of two additional purified ankyrin repeat proteins on recombinant human CD70 target were measured and analyzed with a procedure as described above for DARPin proteins #2, #3, #5 to #12. Briefly, neutravidin was precoated on a GLC chip (BioRad) to a level of 5300 RU. In a second step, bio.hCD70 was immobilized to a level of 510 RU. The binding of DARPin protein #24 and DARPin protein #25 to bio.hCD70 was measured by Injecting the DARPin® molecule in a serial dilution of […]. For all described measurements, an association of 120 s and dissociation of 1200 s using a constant flow of 100 μl/min were applied. The CD70 target was regenerated with 4M MgCl₂ applied for 30s. The signals were double referenced against interspot and the running buffer (PBST: PBS pH 7.4 containing 0.005% […]) treated control lane A6. The 1:1 Langmuir model was used for the fitting.
For orientation: In SPR one partner is held on a chip, and binding of the other changes the refractive index at the surface.

Assay [4] deals with T1, human CD70 expressed on Molm-13 tumor …. In words: cell-based or functional assay.
The target of assay [5] is T2, biotinylated recombinant human CD70 …. Briefly: crude extract HTRF.

B1: DARPin® protein #9 (designed binder)
chain: MRGSHHHHHHGSDLGKKLLQAARAGQLDEVRELLKAGADVNAKDQAGLTPLHIAAATGHLEIVEVLLKAGADVNAKDFSGLTPLHLAAFEGHLEIVEVLLKAGADVNAKDQHGQTPLHLAAWTGHLEIVEVLLKAGADVNAQDKSGKTPADLAARAGHQDIAEVLQKAA
notes: Parent of DARPin protein #25
For the molecule B1, the EC50 (commonly the concentration needed to bring the measured effect to its halfway point) in assay [1] worked out at 475 nM. Besides, the Kd (in general, a measure of binding affinity in units of concentration) in assay [2] came out at 27 nM.

B2: DARPin® protein #25 (designed binder)
chain: MRGSHHHHHHGSDLGKKLLQAARAGQLDEVRELLKAGADVNAKDQQGLTPLHIAANLGHLEIVEVLLKAGADVNAKDLFGLTPLHLAAFEGHLEIVEVLLKAGADVNAKDQHGATPLHLAAWVGHLEIVEVLLKAGADVNAQDKSGKTPADLAARAGHQDIAEVLQKAA
notes: expressed as monovalent designed ankyrin repeat protein with N-terminal His-tag
As to B2, the dissociation constant (Kd) in assay [3] was found to be 13 nM. The molecule further registered an EC50 in assay [1] of 27 nM.

B3: DARPin® protein #8 (designed binder)
chain: MRGSHHHHHHGSDLGHKLLFAAVRGQDDEVRILLAAGADVNAKDTRGVTPLHLAASWGHLEIVEVLLKAGADVNAKDELGNTPLHLAATDGHLEIVEVLLKAGADVNAQDWVGKTPADLAAWWGHEDIAEVLQKAA
Turning to B3, the dissociation constant (Kd) in assay [2] amounted to 1.1 nM.

B4: DARPin® protein #7 (designed binder)
chain: MRGSHHHHHHGSDLGAKLLNAATVGQDDEVRILLAAGADVNAKDWSGQTPLHHAAYTGHLEIVEVLLKAGADVNAKDSWGWTPLHLAAYTGHLEIVEVLLKAGADVNAQDKEGSTPADLAAFHGHEDIAEVLQKAA
As to B4, the Kd in assay [2] was 5.7 nM.

B5: DARPin® protein #3 (designed binder)
chain: MRGSHHHHHHGSDLGQKLLHAAQVGQDDEVRILLAAGADVNAKDTRGITPLHDTAFYGHLEIVEVLLKAGADVNAKDVTGWTPLHLAAYTGHLEIVEVLLKAGADVNAQDNEGITPADLAAFHGHEDIAEVLQKAA
Take B5: the Kd in assay [2] is 3.1 nM.

B6: DARPin® protein #27 (designed binder)
chain: MRGSHHHHHHGSDLGKKLLQAARAGQLDEVRELLKAGADVNAKDQQGLTPLHIAANLGHLEIVEVLLKAGADVNAKDLFGLTPLHLAAFEGHLEIVEVLLKAGADVNAKDQHGATPLHLAAWVGHLEIVEVLLKAGADVNAQDKSGKTPADLAARAGHQDIAEVLQKAAGSPTPTPTTPTPTPTTPTPTPTGSDLGQKLLEAAWAGQDDEVRELLKAGADVNAKNSRGWTPLHTAAQTGHLEIFEVLLKAGADVNAKNDKRVTPLHLAAALGHLEIVEVLLKAGADVNARDSWGTTPADLAAKYGHQDIAEVLQKAA
Consider B6, for which, in assay [4], the “EC50 of in vitro T-cell activation and tumor cell killing (Molm-13-N1 target cells), improvement over the parental binding protein” value is roughly 31 fold.

B7: DARPin® protein #26 (designed binder)
chain: MRGSHHHHHHGSDLGIKLLTAAYDGQLDEVRILLKAGADVNAKDLRGQTPLHYAAGLGHLEIVEVLLKAGADVNAKDLHGWTPLHLAAWSGHLEIVEVLLKAGADVNAQDVEGVTPADLAAVQGHQDIAEVLQKAAGSPTPTPTTPTPTPTTPTPTPTGSDLGQKLLEAAWAGQDDEVRELLKAGADVNAKNSRGWTPLHTAAQTGHLEIFEVLLKAGADVNAKNDKRVTPLHLAAALGHLEIVEVLLKAGADVNARDSWGTTPADLAAKYGHQDIAEVLQKAA
As to B7, in assay [4], the “EC50 of in vitro T-cell activation and tumor cell killing (Molm-13-N1 target cells), improvement over the parental binding protein” value was roughly 7 fold.

B8: DARPin® protein #11 (designed binder)
chain: MRGSHHHHHHGSDLGIKLLYAAYFGQDDEVRILLAAGADVNAKDWLGKTPLHLAATEGHLEIVEVLLKAGADVNAKDEWGETPLHKAAQEGHLEIVEVLLKAGADVNAQDSAGYTPADLAAQVGHEDIAEVLQKAA
B8: the Kd in assay [2] was found to be 3 nM.

B9: DARPin® protein #5 (designed binder)
chain: MRGSHHHHHHGSDLGFKLLQAALRGQLDEVRILLKAGADVNAKDQLGTTPLHLAAHYGHLEIVEVLLKAGADVNAKDVWGDTPLHLAAQHGHLEIVEVLLKAGADVNAQDRAGYTPADLAAQEGHEDIAEVLQKAA
In the case of B9, the Kd in assay [2] was 5.8 nM.

B10: DARPin® protein #10 (designed binder)
chain: MRGSHHHHHHGSDLGFKLLNAAVQGQDDEVRILLAAGADVNAKDLRGTTPLHLAAQFGHLEIVEVLLKAGADVNAKDVWGATPLHLAAEHGHLEIVEVLLKAGADVNAQDNAGKTPADLAAQDGHEDIAEVLQKAA
Take B10: the equilibrium dissociation constant (Kd) in assay [2] amounted to 16 nM.

B11: DARPin® protein #6 (designed binder)
chain: MRGSHHHHHHGSDLGKKLLEAARAGQDDEVRILLAAGTDVNAKDARGSTPLHVAAIHGHLEIVEVLLKAGADVNAKDTWGWTPLHLAAYAGHLEIVEVLLKAGADVNAQDEEGQTPADLAAFHGHEDIAEVLQKAA
In the case of B11, the dissociation constant (Kd) in assay [2] came to 43 nM.

B12: DARPin® protein #2 (designed binder)
chain: MRGSHHHHHHGSDLGYKLLQAAYDGQLDEVRILLKAGADVNAKDSRGQTPLHYAASIGHLEIVEVLLKAGADVNAKDDHGWTPLHLAAWSGHLEIVEVLLKAGADVNAQDQEGTTPADLAAVQGHQDIAEVLQKAA
notes: Parent of DARPin protein #24
In turn, B12 had an EC50 in assay [1] of 4.9 nM. For the same molecule, the Kd in assay [2] was determined as 0.45 nM.

B13: DARPin® protein #24 (designed binder)
chain: MRGSHHHHHHGSDLGIKLLTAAYDGQLDEVRILLKAGADVNAKDLRGQTPLHYAAGLGHLEIVEVLLKAGADVNAKDLHGWTPLHLAAWSGHLEIVEVLLKAGADVNAQDVEGVTPADLAAVQGHQDIAEVLQKAA
notes: as for B2
B13: the Kd in assay [3] was determined as 0.0081 nM. In assay [1], this molecule came in with a concentration giving a half-maximal response (EC50) of 5.2 nM.

B14: DARPin® protein #1 (designed binder)
chain: MRGSHHHHHHGSDLGYKLLQAAYDGQDDEVRILLAAGADVNAKDSRGQTPLHYAASIGHLEIVEVLLKAGADVNAKDDHGWTPLHLAAWSGHLEIVEVLLKAGADVNAQDQEGTTPADLAAVQSHEDIAEVLQKAA
Turning to B14, the binding result in assay [5] is “binds”.

B15: DARPin® protein #12 (designed binder)
chain: MRGSHHHHHHGSDLGKKLLQAARAGQLDEVRELLKAGADVNAKDQTGYTPLHLAARHGHLEIVEVLLKAGADVNAKDEYGWTPLHIAAFIGPLEIVEVLLKAGADVNAKDEQGATPLHLAAWQGHLEIVEVLLKAGADVNAQDKSGKTPADLAARAGHQDIAEVLQKAA
Consider B15, for which the Kd in assay [2] turned out to be 28 nM.
